Paper PMC9951844

Experiments:
[1] = molecular target: SARS-CoV-2 Delta spike antigen of the SPR column (construct not stated) (SARS-CoV-2); experiment: SPR
[2] = molecular target: SARS-CoV-2 Omicron BA.1 spike antigen of the SPR column (construct not stated) (SARS-CoV-2); experiment: SPR

B1: YB9-258 (antibody, V domains shown)
VH: EVQLVESGGGLIQPGGSLRLSCAASGLTVSSNYMHWVRQAPGKGLEWVSVLYAGGSAFYADSVKGRFTISRNNSKNTLYLQMNSLRAEDTAIYYCARGLGDYLDSWGQGTLVTVSS
VL: DIQMTQSPSSVSASVGDRVTITCRASQGIGSWLAWYQQKPGKAPQLLIYAASTLQSGVPPRFSGSGSGTDFTLTITSLQPEDFASYYCQQANSVLALTFGGGTKVEIK
- Kd [1]: 0.00391 nM
- Kd [2]: 6.06 nM
